Patent US20110033448

Target: T1, hCAP18 (propeptide of LL-37), P49913
T1 chain: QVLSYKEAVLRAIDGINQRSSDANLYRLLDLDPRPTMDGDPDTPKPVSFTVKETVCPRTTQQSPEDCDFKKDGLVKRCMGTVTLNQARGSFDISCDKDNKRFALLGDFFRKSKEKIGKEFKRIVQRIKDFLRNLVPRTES

B1: Proteinase 3 (protein)
chain: IVGGHEAQPHSRPYMASLQMRGNPGSHFCGGTLIHPSFVLTAAHCLRDIPQRLVNVVLGAHNVRTQEPTQQHFSVAQVFLNNYDAENKLNDVLLIQLSSPANLSASVATVQLPQQDQPVPHGTQCLAMGWGRVGAHDPPAQVLQELNVTVVTFFCRPHNICTFVPRRKAGICFGDSGGPLICDGIIQGIDSFVIWGCATRLFPDFFTRVALYVDWIRSTLR
B1 was tested, and the “Western blot of cleavage of the 4 kD LL-37 peptide from hCAP18 in supernatants of activated neutrophils” value was “the cleavage of the 4 kD LL-37 peptide can be blocked by pretreatment of neutrophils with the proteinase 3 inhibitors”.
